# Test results taken from patent US20090123452A1 (TORREY PINES INSTITUTE FOR MOLECULAR STUDIES AND CATALYST …, published 2009).
# T1: mutant antithrombin III AT3/SLGR-KI (human, UniProt P01008 33-464)
# T1 construct: RCL residues IAGRSL are replaced by SLGRKI; also called AT3 (AT3/SLGR-KI)
# T1 chain: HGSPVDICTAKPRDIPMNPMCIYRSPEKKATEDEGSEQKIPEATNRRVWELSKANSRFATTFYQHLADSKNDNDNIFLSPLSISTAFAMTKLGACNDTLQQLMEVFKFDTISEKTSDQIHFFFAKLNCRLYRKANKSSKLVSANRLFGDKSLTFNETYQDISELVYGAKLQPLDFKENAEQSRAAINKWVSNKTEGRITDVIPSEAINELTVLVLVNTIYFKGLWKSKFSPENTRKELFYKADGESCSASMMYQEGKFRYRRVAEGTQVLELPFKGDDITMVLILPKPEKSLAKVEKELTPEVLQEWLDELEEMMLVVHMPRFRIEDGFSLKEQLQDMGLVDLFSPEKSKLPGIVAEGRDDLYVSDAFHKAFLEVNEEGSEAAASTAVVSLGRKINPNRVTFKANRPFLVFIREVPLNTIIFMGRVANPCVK
# Biological target: T1, mutant antithrombin III AT3/SLGR-KI
# Experiment: phage display selection: complex with His-tagged AT3-SLGRKI bait captured by anti-His antibody on plate
row,Binder,binding result
1,"Mutant MT-SP1 clone CPC-0027399 (phage) (enzyme, F99L/C122S) VVGGTDADEGEWPWQVSLHALGQGHICGASLISPNWLVSAAHCYIDDRGFRYSDPTQWTAFLGLHDQSQRSAPGVQERRLKRIISHPFFNDFTLDYDIALLELEKPAEYSSMVRPISLPDASHVFPAGKAIWVTGWGHTQYGGTGALILQKGEIRVINQTTCENLLPQQITPRMMCVGFLSGGVDSCQGDSGGPLSSVEADGRIFQAGVVSWGDGCAQRNKPGVYTRLPLFRDWIKENTGVSGSSGGGSEGGGSEGGGSEGGGSGGGSGSGDFDYEKMANANKGAMTENADENALQSDAKGKLDSVATDYGAAIDGFIGDVSGLANGNGATGDFAGSNSQMAQVGDGDNSPLMNNFRQYLPSLPQSVECRPFVFSAGKPYEFSIDCDKINLFRGVFAFLLYVATFMYVFSTFANILRNKES",binds
2,"Mutant MT-SP1 clone CPC-0025387 (phage) (enzyme, I41F/C122S) VVGGTDADEGEWPWQVSLHALGQGHFCGASLISPNWLVSAAHCYIDDRGFRYSDPTQWTAFLGLHDQSQRSAPGVQERRLKRIISHPFFNDFTFDYDIALLELEKPAEYSSMVRPISLPDASHVFPAGKAIWVTGWGHTQYGGTGALILQKGEIRVINQTTCENLLPQQITPRMMCVGFLSGGVDSCQGDSGGPLSSVEADGRIFQAGVVSWGDGCAQRNKPGVYTRLPLFRDWIKENTGVSGSSGGGSEGGGSEGGGSEGGGSGGGSGSGDFDYEKMANANKGAMTENADENALQSDAKGKLDSVATDYGAAIDGFIGDVSGLANGNGATGDFAGSNSQMAQVGDGDNSPLMNNFRQYLPSLPQSVECRPFVFSAGKPYEFSIDCDKINLFRGVFAFLLYVATFMYVFSTFANILRNKES",binds
3,"Mutant MT-SP1 clone CPC-0028333 (phage) (enzyme, T65K/F93L/F97Y/C122S/D217V) VVGGTDADEGEWPWQVSLHALGQGHICGASLISPNWLVSAAHCYIDDRGFRYSDPTQWKAFLGLHDQSQRSAPGVQERRLKRIISHPLFNDYTFDYDIALLELEKPAEYSSMVRPISLPDASHVFPAGKAIWVTGWGHTQYGGTGALILQKGEIRVINQTTCENLLPQQITPRMMCVGFLSGGVDSCQGDSGGPLSSVEADGRIFQAGVVSWGVGCAQRNKPGVYTRLPLFRDWIKENTGVSGSSGGGSEGGGSEGGGSEGGGSGGGSGSGDFDYEKMANANKGAMTENADENALQSDAKGKLDSVATDYGAAIDGFIGDVSGLANGNGATGDFAGSNSQMAQVGDGDNSPLMNNFRQYLPSLPQSVECRPFVFSAGKPYEFSIDCDKINLFRGVFAFLLYVATFMYVFSTFANILRNKES",binds
4,"Mutant MT-SP1 clone CPC-0028017 (phage) (enzyme, C122S/D217V) VVGGTDADEGEWPWQVSLHALGQGHICGASLISPNWLVSAAHCYIDDRGFRYSDPTQWTAFLGLHDQSQRSAPGVQERRLKRIISHPFFNDFTFDYDIALLELEKPAEYSSMVRPISLPDASHVFPAGKAIWVTGWGHTQYGGTGALILQKGEIRVINQTTCENLLPQQITPRMMCVGFLSGGVDSCQGDSGGPLSSVEADGRIFQAGVVSWGVGCAQRNKPGVYTRLPLFRDWIKENTGVSGSSGGGSEGGGSEGGGSEGGGSGGGSGSGDFDYEKMANANKGAMTENADENALQSDAKGKLDSVATDYGAAIDGFIGDVSGLANGNGATGDFAGSNSQMAQVGDGDNSPLMNNFRQYLPSLPQSVECRPFVFSAGKPYEFSIDCDKINLFRGVFAFLLYVATFMYVFSTFANILRNKES",binds
5,"Mutant MT-SP1 clone CPC-0027706 (phage) (enzyme, F97Y/C122S/I136V/Q192H/S201I) VVGGTDADEGEWPWQVSLHALGQGHICGASLISPNWLVSAAHCYIDDRGFRYSDPTQWTAFLGLHDQSQRSAPGVQERRLKRIISHPFFNDYTFDYDIALLELEKPAEYSSMVRPISLPDASHVFPAGKAVWVTGWGHTQYGGTGALILQKGEIRVINQTTCENLLPQQITPRMMCVGFLSGGVDSCHGDSGGPLSIVEADGRIFQAGVVSWGDGCAQRNKPGVYTRLPLFRDWIKENTGVSGSSGGGSEGGGSEGGGSEGGGSGGGSGSGDFDYEKMANANKGAMTENADENALQSDAKGKLDSVATDYGAAIDGFIGDVSGLANGNGATGDFAGSNSQMAQVGDGDNSPLMNNFRQYLPSLPQSVECRPFVFSAGKPYEFSIDCDKINLFRGVFAFLLYVATFMYVFSTFANILRNKES",binds
6,"Mutant MT-SP1 clone CPC-0027797 (phage) (enzyme, H71R/C122S/P131S/D217V) VVGGTDADEGEWPWQVSLHALGQGHICGASLISPNWLVSAAHCYIDDRGFRYSDPTQWTAFLGLRDQSQRSAPGVQERRLKRIISHPFFNDFTFDYDIALLELEKPAEYSSMVRPISLPDASHVFSAGKAIWVTGWGHTQYGGTGALILQKGEIRVINQTTCENLLPQQITPRMMCVGFLSGGVDSCQGDSGGPLSSVEADGRIFQAGVVSWGVGCAQRNKPGVYTRLPLFRDWIKENTGVSGSSGGGSEGGGSEGGGSEGGGSGGGSGSGDFDYEKMANANKGAMTENADENALQSDAKGKLDSVATDYGAAIDGFIGDVSGLANGNGATGDFAGSNSQMAQVGDGDNSPLMNNFRQYLPSLPQSVECRPFVFSAGKPYEFSIDCDKINLFRGVFAFLLYVATFMYVFSTFANILRNKES",binds

# Biological target: T1, mutant antithrombin III AT3/SLGR-KI
# Experiment: as above
# Remark: another data set of the same source
row,Binder,binding result
1,"Mutant MT-SP1 clone CPC-0028341 (phage) (enzyme, I41T/C122S/P173S/Q209L) VVGGTDADEGEWPWQVSLHALGQGHTCGASLISPNWLVSAAHCYIDDRGFRYSDPTQWTAFLGLHDQSQRSAPGVQERRLKRIISHPFFNDFTFDYDIALLELEKPAEYSSMVRPISLPDASHVFPAGKAIWVTGWGHTQYGGTGALILQKGEIRVINQTTCENLLSQQITPRMMCVGFLSGGVDSCQGDSGGPLSSVEADGRIFLAGVVSWGDGCAQRNKPGVYTRLPLFRDWIKENTGVSGSSGGGSEGGGSEGGGSEGGGSGGGSGSGDFDYEKMANANKGAMTENADENALQSDAKGKLDSVATDYGAAIDGFIGDVSGLANGNGATGDFAGSNSQMAQVGDGDNSPLMNNFRQYLPSLPQSVECRPFVFSAGKPYEFSIDCDKINLFRGVFAFLLYVATFMYVFSTFANILRNKES",binds
2,"Mutant MT-SP1 clone CPC-0027484 (phage) (enzyme, N95K/C122S) VVGGTDADEGEWPWQVSLHALGQGHICGASLISPNWLVSAAHCYIDDRGFRYSDPTQWTAFLGLHDQSQRSAPGVQERRLKRIISHPFFKDFTFDYDIALLELEKPAEYSSMVRPISLPDASHVFPAGKAIWVTGWGHTQYGGTGALILQKGEIRVINQTTCENLLPQQITPRMMCVGFLSGGVDSCQGDSGGPLSSVEADGRIFQAGVVSWGDGCAQRNKPGVYTRLPLFRDWIKENTGVSGSSGGGSEGGGSEGGGSEGGGSGGGSGSGDFDYEKMANANKGAMTENADENALQSDAKGKLDSVATDYGAAIDGFIGDVSGLANGNGATGDFAGSNSQMAQVGDGDNSPLMNNFRQYLPSLPQSVECRPFVFSAGKPYEFSIDCDKINLFRGVFAFLLYVATFMYVFSTFANILRNKES",binds
